The source of these data is PMC3936774.

Assay in all cases: fluorescence polarization
(In general: In fluorescence polarisation assays a small probe gives low polarisation when free and higher when bound to something large.)

The target of series [1] is Sa Hfq WT (Staphylococcus aureus, UniProt A0A0H3JV59 1-77).
Series [2] has as its target Ec Hfq K31W (Escherichia coli, UniProt P0A6X3 1-102, K31W).
Series [3] has as its target Sa Hfq F25W (Staphylococcus aureus, UniProt A0A0H3JV59 1-77, F25W).
Series [4] concerns the target Hfq WT (Escherichia coli, UniProt P0A6X3 1-102).
For series [5], the target named is Ec Hfq Q95W (Escherichia coli, UniProt P0A6X3 1-102, Q95W).
The target of series [6] is Ec Hfq Y83W (Escherichia coli, UniProt P0A6X3 1-102, Y83W).
Series [7] addresses Sa Hfq Q31W (Staphylococcus aureus, UniProt A0A0H3JV59 1-77, Q31W).
Series [8] has as its target Ec Hfq Y25W (Escherichia coli, UniProt P0A6X3 1-102, Y25W).
Series [9] deals with Ec Hfq F11W (Escherichia coli, UniProt P0A6X3 1-102, F11W).
The target of series [10] is Ec Hfq R17W (Escherichia coli, UniProt P0A6X3 1-102, R17W).
In series [11] the target is Ec Hfq F39W (Escherichia coli, UniProt P0A6X3 1-102, F39W).
The target in series [12] is Ec Hfq G77W (Escherichia coli, UniProt P0A6X3 1-102, G77W).
Series [13] deals with Ec Hfq Q33W (Escherichia coli, UniProt P0A6X3 1-102, Q33W).

One may read the Kd as the free concentration of one partner at which half of the binding sites on the other are occupied at equilibrium, for simple one-to-one binding. A high value points to lower affinity. In the case of UUUUUU (ssRNA) [U6 (fluorescein)], the binding result in series [1] is given as “binds”. For the same molecule, the Kd in [2] came to 1.12 ± 0.073 µM; in [3], 0.0419 ± 0.0251 µM; in series [4] it was 0.766 ± 0.0737 µM; in series [5] it was 0.848 ± 0.289 µM; in series [6], 0.778 ± 0.254 µM; in [7] it was 0.114 ± 0.0232 µM. The dissociation constant Kd in series [8] was 0.837 ± 0.0625 µM; in series [9], 0.503 ± 0.0555 µM; in series [10] it was 1.6 ± 0.08 µM; in series [11], 2 ± 0.4 µM; in series [12], 0.38 ± 0.0932 µM; in [13] it was 0.405 ± 0.182 µM.
